The labels stand for the following.
B1: gRNA gTGW6-5 (UkCpf1 DR + spacer) ; TGW6-5 target (ssRNA ; dsDNA)
RNA: AUUUCUACUAUUGUAGAUCGUGUAGCUGGGGCUGUACGUGU
DNA 1: CGTGTAGCTGGGGCTGTACGTGT
DNA 2: ACACGTACAGCCCCAGCTACACG
B2: gRNA gTGW6-3 (UkCpf1 DR + spacer) ; TGW6-3 target (ssRNA ; dsDNA)
RNA: AUUUCUACUAUUGUAGAUUUGACCUGCCAGGCUAUCCUGAU
DNA 1: TTGACCTGCCAGGCTATCCTGAT
DNA 2: ATCAGGATAGCCTGGCAGGTCAA
B3: gRNA gTGW6-2 (UkCpf1 DR + spacer) ; TGW6-2 target (ssRNA ; dsDNA)
RNA: AUUUCUACUAUUGUAGAUUUUCACCGACAGCAGCAUGAACU
DNA 1: TTTCACCGACAGCAGCATGAACT
DNA 2: AGTTCATGCTGCTGTCGGTGAAA

The data set deals with T1, UkCpf1 (in cells) (uncultivated microorganism (metagenome)).
T1 chain: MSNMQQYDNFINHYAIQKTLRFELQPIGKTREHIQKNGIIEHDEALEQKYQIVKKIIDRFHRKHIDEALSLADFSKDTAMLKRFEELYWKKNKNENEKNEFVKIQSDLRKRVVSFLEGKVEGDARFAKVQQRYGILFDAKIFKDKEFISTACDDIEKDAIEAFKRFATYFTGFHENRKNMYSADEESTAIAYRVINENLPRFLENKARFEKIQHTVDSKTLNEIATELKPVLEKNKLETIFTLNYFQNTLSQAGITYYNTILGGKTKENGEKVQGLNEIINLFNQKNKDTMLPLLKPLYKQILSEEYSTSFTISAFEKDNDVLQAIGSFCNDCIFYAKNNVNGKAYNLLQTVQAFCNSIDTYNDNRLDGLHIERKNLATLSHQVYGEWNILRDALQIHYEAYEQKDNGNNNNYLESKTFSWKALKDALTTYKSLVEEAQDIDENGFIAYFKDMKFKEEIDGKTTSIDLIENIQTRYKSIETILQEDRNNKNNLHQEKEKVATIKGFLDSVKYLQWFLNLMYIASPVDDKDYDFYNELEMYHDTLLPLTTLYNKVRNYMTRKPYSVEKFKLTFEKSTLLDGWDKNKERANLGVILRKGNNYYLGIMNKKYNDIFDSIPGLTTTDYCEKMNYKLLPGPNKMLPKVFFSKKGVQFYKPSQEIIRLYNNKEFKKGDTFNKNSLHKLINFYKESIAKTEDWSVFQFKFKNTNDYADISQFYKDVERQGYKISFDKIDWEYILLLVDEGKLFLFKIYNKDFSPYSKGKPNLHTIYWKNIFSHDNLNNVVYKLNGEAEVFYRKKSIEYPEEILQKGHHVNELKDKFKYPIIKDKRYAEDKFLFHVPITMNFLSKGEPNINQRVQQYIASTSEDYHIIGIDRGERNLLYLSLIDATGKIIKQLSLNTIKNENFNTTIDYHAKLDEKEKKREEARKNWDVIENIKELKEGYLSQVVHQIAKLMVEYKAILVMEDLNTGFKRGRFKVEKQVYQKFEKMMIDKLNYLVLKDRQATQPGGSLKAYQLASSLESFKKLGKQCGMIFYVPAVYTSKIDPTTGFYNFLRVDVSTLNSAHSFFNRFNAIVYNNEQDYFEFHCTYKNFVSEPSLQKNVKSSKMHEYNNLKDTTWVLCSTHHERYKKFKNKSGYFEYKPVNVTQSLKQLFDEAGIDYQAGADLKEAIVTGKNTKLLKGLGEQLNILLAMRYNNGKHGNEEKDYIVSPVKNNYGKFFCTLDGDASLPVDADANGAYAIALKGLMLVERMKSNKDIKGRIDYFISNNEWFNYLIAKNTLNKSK
Kind of data set: cell_activity; rice protoplast; PAM 5'-YYV.
B1 registered an activity of 0.73 % indel. In turn, B2 yielded an activity of 0.57 % indel. The same measure for B3: 0.39 % indel.
